Five molecules from patent publication US20240336672A1 (INSTITUT PASTEUR, published 2024) can be followed below.

The target in experiment [1] is SARS-CoV-2 spike, Omicron BA.2 variant, on virus (SARS-CoV-2). Kind of experiment: cell-based or functional assay.
Experiment [2] has as its target SARS-CoV-2 spike, Beta variant (B.1.351), on virus or pseudotyped particles (SARS-CoV-2). Put plainly: cell-based or functional assay.
Experiment [3] concerns the target SARS-CoV-2 spike, Omicron BA.1 variant, on virus (SARS-CoV-2). Put plainly: cell-based or functional assay.
In experiment [4] the target is SARS-CoV-2 spike, Delta+ variant, on pseudotyped particles (SARS-CoV-2). Put plainly: cell-based or functional assay.
The target in experiment [5] is SARS-CoV-2 spike, Gamma variant (P.1), on virus or pseudotyped particles (SARS-CoV-2). Put plainly: cell-based or functional assay.
For experiment [6], the target named is SARS-CoV-2 spike, Delta variant (B.1.617.2), on virus or pseudotyped particles (SARS-CoV-2). Kind of experiment: cell-based or functional assay.
The target in experiment [7] is SARS-CoV-2 spike, Alpha variant (B.1.1.7), on virus or pseudotyped particles (SARS-CoV-2). Kind of experiment: cell-based or functional assay.
Experiment [8] concerns the target T1, CoV-229E Spike ectodomain (229E-CoV, UniProt P15423 16-1113).
T1 chain: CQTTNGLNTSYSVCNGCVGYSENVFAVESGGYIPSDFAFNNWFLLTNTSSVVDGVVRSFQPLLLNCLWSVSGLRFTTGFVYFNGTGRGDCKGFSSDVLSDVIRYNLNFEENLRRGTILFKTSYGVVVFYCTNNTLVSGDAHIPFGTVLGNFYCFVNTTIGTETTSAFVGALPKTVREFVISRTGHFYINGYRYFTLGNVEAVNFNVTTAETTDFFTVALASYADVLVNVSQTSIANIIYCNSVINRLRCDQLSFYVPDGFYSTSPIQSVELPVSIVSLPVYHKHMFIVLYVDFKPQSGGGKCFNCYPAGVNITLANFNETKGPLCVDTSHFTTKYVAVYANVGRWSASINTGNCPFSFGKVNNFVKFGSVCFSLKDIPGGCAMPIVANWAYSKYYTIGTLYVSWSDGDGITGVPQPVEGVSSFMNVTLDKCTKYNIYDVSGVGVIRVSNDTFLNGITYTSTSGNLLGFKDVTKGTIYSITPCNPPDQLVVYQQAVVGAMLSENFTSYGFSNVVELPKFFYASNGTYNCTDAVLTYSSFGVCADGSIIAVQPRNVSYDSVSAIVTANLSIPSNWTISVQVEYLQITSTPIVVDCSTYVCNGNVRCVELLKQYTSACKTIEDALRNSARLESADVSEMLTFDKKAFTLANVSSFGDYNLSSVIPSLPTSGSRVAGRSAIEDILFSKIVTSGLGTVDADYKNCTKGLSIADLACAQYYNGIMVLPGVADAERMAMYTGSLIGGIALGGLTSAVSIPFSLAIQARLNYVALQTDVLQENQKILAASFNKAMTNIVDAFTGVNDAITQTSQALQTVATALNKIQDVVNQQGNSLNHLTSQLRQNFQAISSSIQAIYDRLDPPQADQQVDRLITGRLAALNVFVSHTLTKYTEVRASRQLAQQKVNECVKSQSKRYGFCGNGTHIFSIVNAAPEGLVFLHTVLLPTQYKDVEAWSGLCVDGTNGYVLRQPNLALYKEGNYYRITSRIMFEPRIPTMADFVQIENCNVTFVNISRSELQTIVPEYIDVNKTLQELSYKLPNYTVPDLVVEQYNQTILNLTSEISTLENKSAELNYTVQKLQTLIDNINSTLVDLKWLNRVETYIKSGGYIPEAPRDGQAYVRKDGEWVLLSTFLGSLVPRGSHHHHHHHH
Put plainly: ELISA, coated spike ectodomain. On the technique in general: An ELISA detects its analyte on a solid surface through an enzyme-linked reagent.

B1: Cv2.3194 (recombinant human IgG1) (antibody, V domains shown)
VH: EVQLVESGGGLIQPGGSLRLSCAASGITVTSNYMSWVRQAPGKGLEWVSVIYPGGSTFYADSVKGRFTISRDNSKNTLYLQMNSLRAEDTAVYYCARDLVVYGMDVWGQGTTVTVSS
VL: EIVLTQSPGTLSLSPGERATLSCRASQSVSSSYLAWYQQKPGQAPRLLIYGASSRATGIPGRFSGSGSGTDFTLTISRLEPEDFAIYYCQQGVTFGGGTKVEIKR
As to B1, the “S-Fuse neutralization IC50” value in experiment [1] worked out at 0.0405 µg/mL; in experiment [2], 0.0052 µg/mL; in experiment [3] it was 0.0242 µg/mL; in experiment [6], 0.0066 µg/mL; in experiment [7], 0.0043 µg/mL. Besides, the “S-Fuse neutralization IC90” value in experiment [1] was found to be 0.582 µg/mL; in experiment [2], 0.02 µg/mL; in experiment [3] it was 0.709 µg/mL; in experiment [5] it was 0.0056 µg/mL; in experiment [6] it was 0.0547 µg/mL; in experiment [7], 0.0054 µg/mL. Also, the “Pseudoneutralization IC50” value in experiment [2] was 0.0343 µg/mL; in experiment [4], 0.0206 µg/mL; in experiment [5], 0.0099 µg/mL; in experiment [6], 0.0544 µg/mL; in experiment [7] it was 0.0347 µg/mL. The “Pseudoneutralization IC90” value in experiment [2] worked out at 0.119 µg/mL; in experiment [4], 0.089 µg/mL; in experiment [5], 0.0561 µg/mL; in experiment [6], 0.115 µg/mL; in experiment [7] it was 0.132 µg/mL. The binding result in experiment [8] is “no binding”.

B2: Cv2.5213 (recombinant human IgG1) (antibody, V domains shown)
VH: EVQLVESGGGLIQPGGSLRLSCAASGFTVSSNYMSWVRQAPGKGLEWVSLIYSGGSTYYADSVKGRFTISRDNSKNTLYLQMNSLRAEDTAVYYCARDLNYYGMDVWGQGATVTVSS
VL: DIQMTQSPSSLSASVGDRVTITCRASQGISSYLAWYQQKPGKAPKLLIYAASTLQSGVPSRFSGSGSGTDFTLTISSLQPEDFATYYCQQLDSYSPFTFGPGTKVDIKR
For the molecule B2, the binding result in experiment [8] is “no binding”.

B3: Cv2.3235 (recombinant human IgG1) (antibody, V domains shown)
VH: EVQLVESGGGLIQPGGSLRLSCAASGFTVSRNYMSWVRQAPGKGLEWVSVIYSGGSTFYADSVKGRFTISRDNSKNTLYLQMNSLRAEDTAVYYCARDGDYYGMDVWGQGTTVTVSS
VL: DIQMTQSPSFLSASVGDRVTITCRASQGISSFLAWYQQKPGKAPKLLIYGASTLQSGVTSRFSGSGSGTEFTLTISSLQPEDFATYYCQRLDSYPPITFGQGTRLEIKR
In the case of B3, in experiment [8], the binding result was “no binding”.

B4: Cv2.1169 (recombinant human IgG1) (antibody)
heavy: QVQLVQSGPEVKKPGTSVKVSCKASGFTFTTSAVQWVRQARGQRLEWIGWIVVGSGNTNYAQKFQERVTITRDMSTTTAYMELSSLRSEDTAVYYCAAPYCSGGTCLDGFDIWGQGTMVTVSSASTKGPSVFPLAPSSKSTSGGTAALGCLVKDYFPEPVTVSWNSGALTSGVHTFPAVLQSSGLYSLSSVVTVPSSSLGTQTYICNVNHKPSNTKVDKKVEPKSCDKTHTCPPCPAPELLGGPSVFLFPPKPKDTLMISRTPEVTCVVVDVSHEDPEVKFNWYVDGVEVHNAKTKPREEQYNSTYRVVSVLTVLHQDWLNGKEYKCKVSNKALPAPIEKTISKAKQPREPQVYTLPPSRDELTKNQVSLTCLVKGFYPSDIAVEWESNGQPENNYKTTPPVLDSDGSFFLYSKLTVDKSRWQQGNVFSCSVMHEALHNHYTQKSLSLSPGK
light: not shown
notes: also called Cv2.1169 IgG
In the case of B4, the “S-Fuse neutralization IC50” value came out at 0.332 µg/mL in experiment [1]; 0.0023 µg/mL in experiment [2]; 0.265 µg/mL in experiment [3]; 0.0016 µg/mL in experiment [5]; 0.0021 µg/mL in experiment [6]; 0.0016 µg/mL in experiment [7]. Moreover, the “S-Fuse neutralization IC90” value came out at 9.69 µg/mL in experiment [1]; 0.0072 µg/mL in experiment [2]; 7.59 µg/mL in experiment [3]; 0.0086 µg/mL in experiment [5]; 0.0064 µg/mL in experiment [6]; 0.004 µg/mL in experiment [7]. For the same molecule, the “Pseudoneutralization IC50” value in experiment [2] is 0.0142 µg/mL; in experiment [4], 0.0036 µg/mL; in experiment [5] it was 0.0096 µg/mL; in experiment [6], 0.008 µg/mL; in experiment [7], 0.0055 µg/mL. Moreover, the “Pseudoneutralization IC90” value is 0.0342 µg/mL in experiment [2]; 0.0149 µg/mL in experiment [4]; 0.0292 µg/mL in experiment [5]; 0.0341 µg/mL in experiment [6]; 0.024 µg/mL in experiment [7]. Besides, in experiment [8], the binding result is given as “no binding”.

B5: Cv2.1353 (recombinant human IgG1) (antibody, V domains shown)
VH: EVQLVESGGGLVQPGGSLRLSCAASGVTVSSNYMNWVRQAPGKGLEWVSVIYSGGSTFYADSVKGRFIISRDNSKNTLYLQMNSLKTEDTAVYYCARDLGPMGFDIWGQGTMVTVSS
VL: DIQMTQSPSFLSASVGDRVTITCRASQGISSYLAWYQQKPGKAPKLLIYAASTLQSGVPSRFSGSGSGTEFTLTISSLQPEDFATYYCQQLNSDPPVTFGPGTKVDIKR
With B5, in experiment [8], the binding result is “no binding”.
